# B1: Parsatuzumab: Anti-human EGFL7 therapeutic antibody (Parsatuzumab) obtained from Creative Biolabs; blocking monoclonal antibody (antibody, chains of the INN, looked up, V domains shown)
# VH: EVQLVESGGGLVQPGGSLRLSCAASGYTFIDYYMNWVRQAPGKGLEWVGDINLDNSGTHYNQKFKGRFTISRDKSKNTAYLQMNSLRAEDTAVYYCAREGVYHDYDDYAMDYWGQGTLVTVSS
# VL: DIQMTQSPSSLSASVGDRVTITCRTSQSLVHINAITYLHWYQQKPGKAPKLLIYRVSNRFSGVPSRFSGSGSGTDFTLTISSLQPEDFATYYCGQSTHVPLTFGQGTKVEIK
# Key:
# [1] = tested on: wild type (C57Bl/6J) mice; assay: Toxicity on normal hematopoiesis in wild type mice; format: in vivo; conditions: 50 mpk twice a week for two weeks
# Experimental: FIG. 20A-20B. WT mice were treated with 50 mpk twice weekly of Parsatuzumab (@EGFL7) or IgG1 control. FIG. 20A. CBCs from mice harvested after treatment. FIG. 20B. Percent engraftment of treated BM (CD45.2+) transplanted into BoyJ recipient mice (CD45.1).
# To assess the toxicity of Parsatuzumab on normal hematopoiesis, wild type (C57Bl/6J) mice were treated with Parsatuzumab (n=4) and IgG1 control (n=4) with the highest dose previously tested at 50 mpk twice a week for two weeks. Parsatuzumab targets both human and mouse EGFL7 protein. After two weeks of treatment, blood, spleen and BM were harvested and full phenotypic characterization was performed to assess toxicity. […] Full immunophenotypic examination of BM populations was also performed (data not shown due to space constraints). […] To functionally test the effect of Parsatuzumab on normal HSPCs, competitive repopulation BM transplantation (BMT) assays and CFU assays were performed. For competitive BMT, 2×10^6 WBM was harvested from Parsatuzumab and IgG1 treated mice (CD45.2) with 2×10^6 BoyJ (CD45.1) WBM and transplanted into lethally irradiated BoyJ recipients.
# [2] = tested on: non-small cell lung cancer; conditions: mouse, in vivo; cited from earlier work
# HEY1 mRNA = HEY1 mRNA qRT-PCR in primary AML blasts; format: cell-based, human; conditions: 100 μg/ml, 2 and 10 h, vs IgG
# Experimental: FIG. 26. Blocking EGFL7 increases the NOTCH downstream target, HEY1, in human AML patient blasts (A) Primary blasts from AML patients were cultured in SFEM medium with 10% FBS in the absence or presence of 100 μg/ml of IgG or anti-human EGFL7 antibody for 2 and 10 h. Total RNAs were extracted for qRT-PCR analysis of HEY1 mRNA with β-ACTIN as internal control. *p<0.05, ***p<0.001 vs IgG; ns=not significant.
# (§1) Total RNA was extracted using Trizol reagent (Invitrogen, Carlsbad, Calif., USA). cDNA was synthesized using SuperScript III reagents (Invitrogen) according to the manufacturer's instruction. Quantitative Real-Time RT-PCR was performed using commercially available TaqMan Gene Expression Assay primers and the 7900HT Fast Real-Time PCR System (Applied Biosystems, Foster City, Calif., USA). The expression levels of target genes were normalized to β-ACTIN. Relative expression was calculated by using the comparative 2^−ΔΔct method.
# [3] = tested on: CD34+ primary AML patient cells; assay: Cell-trace violet (CTV) membrane-labeling retention, quiescence; format: cell-based, human; conditions: vs unstimulated / IgG1 controls
# Description: FIG. 17A-17C. EGFL7 in LSCs. FIG. 17A. qRT-PCR of EGFL7 in LSC-enriched and non-LSC enriched subpopulations of primary AML patient samples normalized to B-ACTIN. Number of quiescent (CTV^MAX) AML cells treated with FIG. 17B. rEGFL7 or control (vs Unstim). FIG. 17C. anti-EGFL7 (Parsatuzumab) antibody or IgG1 control (vs Unstim). *P<0.05.
# A morphologically homogenous and functionally static blast population present in the BM and blood of individual AML patients has now evolved into the current perspective of multiple dynamic and heterogeneous cell subpopulations which includes the bulk blast population and the relatively rare leukemia initiating cells (LICs) also referred to as LSCs. Thus, targeting both LSCs and bulk blasts is necessary for complete eradication of the disease. To determine whether EGFL7 has a role in LCS, the LSC-enriched population was first determined within each AML patient sample using long-term colony initiating cell (LTC-IC) assays. […] Next, to determine whether EGFL7 has a role in LSC function, CD34+ cells were isolated and stimulated them with rEGFL7 protein and performed LTC-IC assays. […] To determine whether EGFL7 regulates LSC functions such as cellular quiescence, membrane-labeling retention experiments were performed with cell-trace violet dye (CTV). […]
# HES-1 = HES-1 / HES1 RT-PCR in primary AML blasts; format: cell-based, human
# Experimental: FIG. 15A-15D. EGFL7 binds and antagonizes NOTCH2 signaling. FIG. 15A. Co-IPs in Kasumi-1 cells using anti-EGFL7 antibody or normal rabbit IgG in Protein G Plus/Protein A agarose beads. Eluate was analyzed by immunoblotting for NOTCH1,-3, and EGFL7. FIG. 15B. Co-IPs with rabbit anti NOTCH1-3 antibody or normal rabbit IgG in Protein G Plus/Protein A agarose beads. FIG. 15C. Immunoblot for cleaved and total NOTCH2 in primary AML blasts stimulated in 0.25 μM rEGFL7. FIG. 15D. RT-PCR on primary AML blasts stimulated with 0.25 μM rEGFL7, *P<0.05.
# FIG. 18A-18B. Parsatuzumab decreases blast growth and activation of NOTCH downstream signaling. FIG. 18A. […]
# FIG. 23A-23E. […] (FIG. 23B) Total RNA was extracted for quantitative real time (qRT-PCR) analysis of HES1 mRNA with β-ACTIN as internal control. *p<0.05 vs un-stimulated control (Unstim). […] Total RNA was extracted for quantitative real time RT-PCR analysis of HES1 mRNA with β-ACTIN as internal control. *p<0.05, ***p<0.001 vs IgG.
# as §1, with “The expression levels of target genes were normalized to β-ACTIN. Relative expression was calculated by using the comparative 2^−ΔΔct method.” left out
molecule,measurement,setting,value
B1,number of CFUs and types of colonies from treated BM,[1]; vs IgG1,no significant changes in the number of CFUs or types of colonies formed
same,full differential complete blood counts (CBCs),[1]; vs IgG1 control,No significant changes
same,immunophenotypic examination of BM populations,[1]; vs IgG1 control,no significant changes in any hematopoietic stem and/or progenitor populations
same,overall survival,[2],increased overall survival
same,tumor size,[2],decreased tumor size
same,HEY1 mRNA,HEY1 mRNA,increases were also observed
same,number of quiescent cells (CTV^MAX),[3],decrease in the number of quiescent AML cells
same,expression of HES1,"HES-1; 100 μg/ml, 2 and 10 hrs post treatment, vs IgG",concomitant increases
same,HES-1 mRNA expression,"HES-1; 4 and 24 hours after addition, vs IGg1 controls",significant increases in HES-1 expression
